For assay [1], the target named is FXaI prepeptide expressed by plasmid pFSHI-6 (Met-His-His-His-His-His-His-Gly-Thr-Asp-Asp-Asp-Asp-Lys-FXaI) (Hirudo medicinalis).
The next assay has as its system FXa. Nature of the assay: chromogenic FXa inhibitory activity assay (hydrolysis of CHG). In kind it is biochemical, bovine. The note with it: for Inhibitory activity (specific activity), FXa: 1 mu = amount causing 50% inhibition with 2 nM FXa. As to the method: Increasing amounts of FXaI purified on Mono-Q were preincubated for 3 minutes with 2 pmol bovine FXa in a 1 ml cuvette. The initial rate of hydrolysis of the substrate CHG was monitored at 405 nm (see Example 2). Fraction 47 was the peak fraction of a particular purification experiment.
The assay of FXa inhibitory activity is based on the inhibition of the FXa-mediated hydrolysis of the chromogenic substrate methoxycarbonyl-D-cyclohexylglycyl-glycyl-arginyl p-nitroanilide (CHG) as described below.
The appropriate substrate concentration was determined from the molar absorbance which is 8210 at 342 nm. The reaction mixture contains 50 mM Tris-HCl pH 8.2, 5 mM CaCl2, 200 mM NaCl, 0.1% PEG, 40 μM substrate, and approximately 2 nM FXa. The FXa concentration is determined more precisely from the initial (first 20 seconds) rate of CHG hydrolysis at 40 μM in the absence of inhibitor based on the kinetic parameters mentioned above.
Inhibition of the increase in absorbance may be observed in the presence of the FXa inhibitory activity of an FXa inhibitor such as FXaI of the present invention. The inhibitor concentration is the difference in absorbance between the reaction in the presence and absence of inhibitor multiplied by the FXa concentration.
This determination assumes the formation of a 1:1 enzyme-inhibitor complex, and further assumes that the dissociation constant is low enough (i.e., tight binding) to enable essentially total binding of the inhibitor (FXaI) to the enzyme (FXa). In fact, the saturation shape of the dose-response curve (FIG. 3) provides evidence that a finite and not negligible dissociation of the inhibitor-enzyme complex occurs under these conditions. The dose response curve is represented by the degree of inhibition versus FXaI concentration and is further described in Section 5.2.
The degree of dissociation of the FXa-FXaI complex is characterized by the inhibition constant (Ki) and may be determined from the inhibited velocity of the hydrolysis of the chromogenic substrate CHG. […] The Ki of naturally occurring FXa in the chromogenic assay is about 9 nM.
The determination of inhibitor concentration determined by the above method is therefore probably underestimated. It was found useful to define the FXaI concentration as the protein concentration (IC50) required to obtain a constant degree of inhibition, usually 50% and to define the amount causing 50% inhibition under these reaction conditions to be 1 milliunit (mu) or 1 pmol. IC50 is generally higher than Ki, and depending on the type of inhibition, can be shown to depend variously on substrate concentration, Ki, Km and other factors (Segel, I. (1974) "Enzyme Kinetics", Wiley Interscience). In fact, the range of values of IC50 was determined to be about 10-20 nM.
The FXaI activity assay used to determine concentration during purification and characterization was performed in an Elisa Titertek Twin Reader, Type 380 (EF LAB). The final activity measurement of purified protein was also performed in a Phillips (model PU 8720) UV/Vis scanning spectrophotometer.

Assay [2] has as its system thrombin. Nature of the assay: thrombin inhibition assay according to Lottenberg et al. In kind it is biochemical. As to the method: The refolded and dialyzed protein so obtained was assayed for FXa inhibitory activity by the biochemical chromogenic assay described in Example 2. The results are shown in Table 6 as milliunits per mg protein (mu/mg). The amount of protein causing 50% inhibition in an assay mixture containing 2 nM FXa is defined as 1 mu. In addition, the refolded protein was also tested for its inhibitory effect on thrombin, another proteolytic enzyme of the coagulation cascade, which was assayed according to Lottenberg et al. Methods Enzymol. 80:341-361 (1981).

Assay [3] concerns the target bovine Factor Xa (bovine) (UniProt P00743).
In the next assay the test system is human plasma. Nature of the assay: APTT coagulation assay in human plasma. In kind it is biochemical. As to the method: (§1) APTT (activated partial thromboplastin time) of fresh murine or human plasma was monitored by visual assessment of its clotting in the absence or presence of various amounts of FXaI. Briefly, FXaI (up to 50 μl), 100 μl of plasma and 100 μl of partial thromboplastin (Actin-FS) were incubated for 3 minutes at 37° C. The coagulation cascade was activated by the addition of 100 μl of 20 mM CaCl2. The FXaI concentration in the abscissa is based on the assumption that 1 mu=1 pmol. Murine plasma--.circle-solid.; human plasma--.diamond-solid.. The arrows indicate the FXaI concentration at which doubling of the APTT is obtained.
(§2) The inhibitory activity of FXaI was also assayed as the increase of the activated partial thromboplastin time (APTT) essentially as described in Spaethe, Haemostasis, AHS/Deutschland GmbH, Munich (1984), using as reagent Actin FS (Dade), which contains ellagic acid for activation of Factors XII and Factor XI, and soy bean phospholipid. Under these conditions, and in the presence of 20 mM CaCl2, only the intrinsic pathway of coagulation is activated.
(§3) Isoform A (the major fraction of naturally occurring FXaI isolated from DLS) was used in these experiments. […] The protein concentration of this batch was assayed by SDS-Bradford (Macart and Gerbaut, Clin. Chim. Acta 122:93-101 (1982)) and was determined to be ~20 μg/ml.

The test system of a further assay is murine plasma. Nature of the assay: APTT coagulation assay in murine plasma. The format is biochemical. As to the method: as §1, §2, §3
Assay [4] concerns the target Factor Xa. Nature of the assay: prothrombinase complex assay, modified protocol (50 pM FXa, 1.35 µM prothrombin).
Assay [5] has as its target Factor Xa. Nature of the assay: prothrombinase complex assay (FXa 250 pM, prothrombin 2.67 µM, FVa, cephalin, Ca++).
Assay [6] has as its target Factor Xa.
For assay [7], the target named is bovine Factor Xa (bovine) (UniProt P00743). This is another data set of the same source.
For assay [8] the target is unchanged. The source holds these as a separate data set.
Assay [9] concerns the target thrombin.
Assay [10] deals with bovine Factor Xa (bovine) (UniProt P00743). This is another data set of the same source.
Target sequence in this assay (P00743 41-492): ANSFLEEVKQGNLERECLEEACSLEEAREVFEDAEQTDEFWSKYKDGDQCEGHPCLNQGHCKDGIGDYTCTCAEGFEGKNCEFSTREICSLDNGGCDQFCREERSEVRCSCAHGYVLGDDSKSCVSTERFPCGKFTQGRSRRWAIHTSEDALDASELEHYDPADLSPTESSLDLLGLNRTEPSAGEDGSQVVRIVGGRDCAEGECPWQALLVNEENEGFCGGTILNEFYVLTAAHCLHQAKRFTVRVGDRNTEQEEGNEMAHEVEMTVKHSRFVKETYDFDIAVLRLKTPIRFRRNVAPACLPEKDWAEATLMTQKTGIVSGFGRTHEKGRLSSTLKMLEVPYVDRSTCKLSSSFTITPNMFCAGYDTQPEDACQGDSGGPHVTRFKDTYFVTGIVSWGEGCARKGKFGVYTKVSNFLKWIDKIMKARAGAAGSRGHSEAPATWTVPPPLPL
In assay [11] the target is Factor Xa. The source holds these as a separate data set.
Assay [12] has as its target bovine Factor Xa (bovine) (UniProt P00743). The source holds these as a separate data set.
Target sequence in this assay (P00743 41-492): as above
Assay [13] shares this target. This is another data set of the same source.
Target sequence in this assay (P00743 41-492): as above
For assay [14] the target is unchanged. This is another data set of the same source.
Target sequence in this assay (P00743 41-492): as above

Where “and” joins values, the source holds several entries; their conditions need not be identical. Equal values may be shown once. Bounds are passed on as bounds.

The molecule “Enterokinase (Biozyme, Great Britain) (enzyme)” showed a cleavage efficiency by SDS-PAGE analysis in [1] of 95%.
Turning to “Met-His-His-His-His-His-His-Gly-Thr-Asp-Asp-Asp-Asp-Lys-FXaI [FXaI prepeptide]”, the “FXa inhibitory specific activity” value with FXa (prior to cleavage with enterokinase) was 1000-1200 mu/mg protein.
Turning to “Refolded 11"f": refolded fusion protein: 63 N-terminal amino acids of modified Cu/Zn-SOD, met-phe-val linker, FXaI tyr26 to gly110; plasmid pDeo-S-XaI-11"f"”, the entries for the “Inhibitory activity (specific activity), FXa” value with FXa (listed as Refolded 11"f" Batch 1), in the assay with FXa (listed as Refolded 11"f" Batch 2) and in the assay with FXa (listed as Refolded 11"f" Batch 3) were 150 mu/mg, 95 mu/mg and 89 mu/mg, respectively. Further, the “specificity for FXa versus thrombin” value with FXa (ratio of specific activities) was “greater than 80 fold”. The “Inhibitory activity (specific activity), Thrombin” value in the assay with thrombin [2] is given as < 1 mu/mg.
For the molecule “isoform A of naturally occurring FXaI isolated from DLS”, the activity in the chromogenic assay in assay [3] was 164 mu/ml.
With “Isoform A: major fraction of naturally occurring FXaI from DLS, eluted by low salt gradient, 13-14 kD”, in the assay with human plasma, the “concentration causing doubling of the APTT” value is 10 mu/ml and the “concentration causing doubling of the APTT, based on protein concentration” value was 87 nM. For the same molecule, in the assay on FXa (assuming tight binding between FXa and inhibitor), the “activity in the chromogenic assay, equivalent” value worked out at 164 pmol/mL. Besides, in the assay with FXa (batch of ~20 μg/ml protein), the “activity in the chromogenic assay” value is 164 mu/ml. For the same molecule, in the assay with murine plasma, the “concentration causing doubling of the APTT” value turned out to be 3.5 mu/ml and the “concentration causing doubling of the APTT, based on protein concentration” value is 30 nM.
On to “naturally occurring FXaI (Factor Xa inhibitor) purified from dilute leech saliva (DLS) of Hirudo medicinalis”, for which the Ki (commonly the dissociation constant of the complex between target and ligand, obtained from inhibition or displacement) with Factor Xa [4] worked out at 0.12 nM; in the assay with Factor Xa [5] it was 0.072 nM. Besides, in the assay with Factor Xa [6], the IC50 in the prothrombinase complex assay (generation of thrombin from prothrombin) came to 0.19 nM. In [7], the IC50 in the chromogenic FXa assay was in the range of 10 to 20 nM.
On to “isoform B of naturally occurring FXaI isolated from DLS”, for which, in assay [8], the Specific activity, mu/mg (inhibition of FXa, chromogenic assay) is 507 mu/mg. Further, the Specific activity, mu/mg (inhibition of thrombin) in the assay with thrombin [9] was < 1 mu/mg.

B1: FXaI prepeptide expressed by plasmid pFSHI-6 (Met-His-His-His-His-His-His-Gly-Thr-Asp-Asp-Asp-Asp-Lys-FXaI) (protein)
chain: MHHHHHHGTDDDDKYEVIYVDDPCEDSDCEDGNKCSPVTNECDCSPVRCRLHCNFYVKDSNGCETCACEPKCKHKNCPTGHHCNKLTNKCELKKQRRMG
As for B1, in [10], the FXa inhibitory specific activity in the chromogenic assay, prior to cleavage (mu/mg protein) was 1000 and 1200.

B2: mature recombinant FXaI obtained by enterokinase cleavage of the pFSHI-6 prepeptide (protein)
chain: YEVIYVDDPCEDSDCEDGNKCSPVTNECDCSPVRCRLHCNFYVKDSNGCETCACEPKCKHKNCPTGHHCNKLTNKCELKKQRRMG
Regarding B2, in [10], the FXa inhibitory specific activity in the chromogenic assay, after removal of the extension peptide by chromatography was 8000 mU/mg; the FXa inhibitory specific activity in the chromogenic assay, following cleavage with enterokinase (mu/mg protein) is 4000 and 4500. For the same molecule, the concentration causing doubling of the APTT with Factor Xa [11] was 12.2 µg/mL.

B3: mature recombinant FXaI obtained by CNBr cleavage of the FXaI dimer (protein)
chain: B2 chain
Regarding B3, the specific activity in the chromogenic assay (route II: refolded, then cleaved with CNBr), B in assay [12] was determined as 4700 mu/mg. In addition, the specific FXa inhibitory activity in the chromogenic assay (route I: cleaved, then refolded) in assay [13] amounted to 1900 mU/mg. In [14], the specific activity in the chromogenic assay (route II: refolded, then cleaved with CNBr), A was 2470 mu/mg.

B4: cleaved, refolded product: mature FXaI from the FXaI dimer (plasmid pMLK-XaI-D-11"m") cleaved with CNBr, then refolded (protein)
chain: B2 chain
Regarding B4, the “specific FXa inhibitory activity” value with FXa (Route I: dimer cleaved with CNBr, then refolded) turned out to be 1900 mU/mg.

The values above are taken from patent US5801017A, “Production of recombinant factor Xa inhibitor of leech Hirudo medicinalis” (Bio-Technology General Corp., priority 1994, dated 1998).
